Paper PMC3154886 (Molecular Biology of the Cell, 2011)

Target: Human EB3 (end-binding protein 3) (human, UniProt Q9UPY8 1-281)
Assay: cross-linking

Chain of Human EB3 (end-binding protein 3) (Q9UPY8 whole entry): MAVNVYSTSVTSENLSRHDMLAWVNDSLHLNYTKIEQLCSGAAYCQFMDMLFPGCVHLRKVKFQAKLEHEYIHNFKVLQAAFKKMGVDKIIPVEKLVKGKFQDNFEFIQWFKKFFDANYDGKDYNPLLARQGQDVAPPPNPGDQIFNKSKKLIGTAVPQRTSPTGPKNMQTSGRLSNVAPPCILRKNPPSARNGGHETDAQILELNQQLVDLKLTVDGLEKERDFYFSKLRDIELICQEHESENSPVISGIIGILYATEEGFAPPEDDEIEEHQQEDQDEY

- binding result: binds
B1: Human EB1 (end-binding protein 1) (natural protein)
chain: MAVNVYSTSVTSDNLSRHDMLAWINESLQLNLTKIEQLCSGAAYCQFMDMLFPGSIALKKVKFQAKLEHEYIQNFKILQAGFKRMGVDKIIPVDKLVKGKFQDNFEFVQWFKKFFDANYDGKDYDPVAARQGQETAVAPSLVAPALNKPKKPLTSSSAAPQRPISTQRTAAAPKAGPGVVRKNPGVGNGDDEAAELMQQVNVLKLTVEDLEKERDFYFGKLRNIELICQENEGENDPVLQRIVDILYATDEGFVIPDEGGPQEEQEEY
